Among the data in publication PMC12415521 (Methods in molecular biology (Clifton, N.J.), 2023) are Kd values, retold here.

Read-outs that look alike come from different tables or passages of the source.

Experiment [1] concerns the target T1, CD2 domain of cpSRP43.
T1 chain: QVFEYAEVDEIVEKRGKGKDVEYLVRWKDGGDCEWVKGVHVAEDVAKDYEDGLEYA
Kind of experiment: ITC. Background: ITC needs no label: the signal is the heat of the interaction.

Experiment [2] addresses T1, CD2 domain of cpSRP43. The experiment is described as follows: ITC.

B1: 54-peptide (peptide)
chain: APPGTARRKRKADS
Regarding B1, the results for the Kd in the experiment with CD2 domain of cpSRP43 [1] and in the experiment with CD2 domain of cpSRP43 [2] were 1.42 µM and 1.27 µM, respectively.
